From article PMC2633621 (Nature chemical biology, 2008)
Where a chain is given by its changes, count along the chain named. In names and notes the source's numbering stands. Blank lines part the entries; values can stand above or below the binder they belong to.

What was measured:
[1] = molecular target: T1, I211R mutant Kvβ2 expressed in complex with the T1 domain (rat, UniProt P62483 36-367, I211R); test: pull-down
T1 sequence (looked up): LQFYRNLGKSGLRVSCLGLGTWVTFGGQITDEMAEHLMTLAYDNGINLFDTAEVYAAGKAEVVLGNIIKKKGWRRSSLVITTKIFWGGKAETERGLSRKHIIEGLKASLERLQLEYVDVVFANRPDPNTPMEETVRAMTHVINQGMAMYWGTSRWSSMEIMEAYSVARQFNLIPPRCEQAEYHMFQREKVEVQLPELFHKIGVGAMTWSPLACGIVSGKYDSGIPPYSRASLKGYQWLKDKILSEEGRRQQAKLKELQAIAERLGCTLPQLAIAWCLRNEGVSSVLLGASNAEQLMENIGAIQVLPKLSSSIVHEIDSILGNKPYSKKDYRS

[2] = molecular target: the molecule itself; test: crystal structure

binding result [1]: binds
B1: T1 domain of Kv1.1 (residues 2 to 135), fusion with N-terminal 6-histidine tag and SUMO protein (domain or fragment, rat, UniProt P10499 2-135, looked up)
chain: TVMSGENADEASAAPGHPQDGSYPRQADHDDHECCERVVINISGLRFETQLKTLAQFPNTLLGNPKKRMRYFDPLRNEYFFDRNRPSFDAILYYYQSGGRLRRPVNVPLDMFSEEIKFYELGEEAMEKFREDEG

B2: Kvβ2 conserved core (residues 36 to 367), purified and co-crystallized with cortisone (domain or fragment, rat, UniProt P62483 36-367, looked up)
chain: T1 sequence (looked up) with R176I
stoichiometry N [2]: 4

B3: W121A mutant Kvβ2, co-crystallized with cortisone (domain or fragment, rat, UniProt P62483 36-367, looked up)
chain: T1 sequence (looked up) with W86A, R176I
binding result [2]: binds

B4: I211R mutant Kvβ2, co-crystallized with 2 mM cortisone (domain or fragment, rat, UniProt P62483 36-367, looked up)
chain: T1 sequence (looked up)
binding result [2]: binds
